Measured values as given in patent US20170082609A1.

How the values were obtained:
[1] = target: CDHR3 Cys529→Tyr variant (human) (UniProt Q6ZTQ4); test: virus bound to transfected HeLa cells 2 h p.i., viral RNA by qRT-PCR
[2] = target: CDHR3 Cys529→Tyr variant (human) (UniProt Q6ZTQ4); test: cell-based or functional assay
[3] = target: human cadherin-related family member 3 (CDHR3), wild-type (human) (UniProt Q6ZTQ4); test: cell-based or functional assay
[4] = target: CDHR3 Cys529→Tyr variant with Asn186→Ala (human) (UniProt Q6ZTQ4); test: cell-based or functional assay
[5] = target: CDHR3 Cys529→Tyr variant with Asn186→Ala (human) (UniProt Q6ZTQ4); test: virus bound to transfected HeLa cells 2 h p.i., viral RNA by qRT-PCR, against CDHR3 Cys529→Tyr without the mutation

## rhinovirus C15 (RV-C15), recombinant virus from the clinical isolate's infectious clone
[1]
  fold binding relative to the wild-type CDHR3: 10 fold
[2]
  progeny yield relative to the wild-type CDHR3: 10 fold
  replication in HeLa-E8 cells (viral RNA from 2 h to 24 h post infection): > 2 log
[3]
  replication (RV-C RNA compared to input): 2 log
[4]
  replication: 70%
[5]
  percent impairment of virus binding: > 70%
